Experimental data reported in article PMC6764942, “TFF3 interacts with LINGO2 to regulate EGFR activation for protection against colitis and gastrointestinal helminths” (Nature Communications, 2019).
Where no end group is shown, it is not given here.

Target: T1, LINGO2-GFP on HEK293 transfectants (mouse, UniProt Q3URE9 28-606)
T1 construct: LINGO2, mouse, from pCMV3-mLINGO2-GFP; also called GFP-LINGO2; pCMV3-mLINGO2-GFP; source: HEK293, transfected, on cells
T1 sequence (looked up): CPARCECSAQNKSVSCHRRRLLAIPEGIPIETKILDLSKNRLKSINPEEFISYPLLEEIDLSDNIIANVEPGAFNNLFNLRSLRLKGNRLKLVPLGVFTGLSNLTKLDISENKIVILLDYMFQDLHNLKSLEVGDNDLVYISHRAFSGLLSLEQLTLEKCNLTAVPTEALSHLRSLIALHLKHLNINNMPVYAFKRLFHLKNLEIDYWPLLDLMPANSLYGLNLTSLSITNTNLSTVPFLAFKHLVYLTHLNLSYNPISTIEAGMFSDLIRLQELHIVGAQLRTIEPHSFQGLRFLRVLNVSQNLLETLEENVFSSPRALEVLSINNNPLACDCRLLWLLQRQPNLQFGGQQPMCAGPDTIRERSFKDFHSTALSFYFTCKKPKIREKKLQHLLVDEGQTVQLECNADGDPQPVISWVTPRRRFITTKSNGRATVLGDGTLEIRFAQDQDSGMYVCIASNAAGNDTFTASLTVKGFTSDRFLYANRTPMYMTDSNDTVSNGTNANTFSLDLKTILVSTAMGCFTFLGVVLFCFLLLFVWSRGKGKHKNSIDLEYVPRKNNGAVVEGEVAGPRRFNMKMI
Experiment: flow cytometry on cells; HEK293 transfected with GFP-labeled receptors, 24 h later incubated with PBS or 3 ug Alexa Fluor 647 labeled soluble ligand for 16 h at 4 C; double positive (GFP and AF-647) cells counted
Conditions: one partner purified

fold increase in double-positive cells compared to PBS or IL-2-647: 12 fold
B1: TFF3-647 (murine recombinant TFF3 labeled with Alexa Fluor 647) (ligand, mouse, UniProt Q62395 23-81, looked up)
chain: ADYVGLSPSQCMVPANVRVDCGYPSVTSEQCNNRGCCFDSSIPNVPWCFKPLQETECTF
modifications: ends and bridges not checked; also: Alexa Fluor 647 label, site not given here
notes: Trefoil factor 3, mouse, recombinant (Peprotech); A commercial recombinant TFF3 is probably the mature protein (surmise); source: bought: Peprotech
